For orientation: Kd means the equilibrium constant for the complex coming apart. Lower therefore signals tighter binding.

The target of assay [1] is Heat shock protein 90 (Hsp90), protein immobilised on the FEB chip (UniProt P07900). Kind of assay: field effect biosensing.
Assay [2] has the same target. Kind of assay: field effect biosensing. The source holds these as a separate data set.

*1 amine or outer side, *2 acyl side, *3 side chain or, on linkers, in order; H or OH if unused. Glutaryl = O=C(CCCC(=O)[*:2])[*:1]; Suc = O=C(CCC(=O)[*:2])[*:1]

For the molecule “Cell division cycle 37 (Cdc37), analyte protein in FEB (from UniProt Q16543 1-378) (natural protein)”, the KD in the presence of CHP-028 (competitive binding) in assay [1] was 2.78 µM.

B1: CHP-027, pre-cyclic peptidomimetic CO-(CH2)3-CO2H KTGDEK-K-GG-…-NH2 (peptide)
peptide: Glutaryl-KTGDEKKGGYGRKKRRQRRR-NH2
SMILES: C[C@@H](O)[C@H](NC(=O)[C@H](CCCCN)NC(=O)CCCC(=O)O)C(=O)NCC(=O)N[C@@H](CC(=O)O)C(=O)N[C@@H](CCC(=O)O)C(=O)N[C@@H](CCCCN)C(=O)N[C@@H](CCCCN)C(=O)NCC(=O)NCC(=O)N[C@@H](Cc1ccc(O)cc1)C(=O)NCC(=O)N[C@@H](CCCNC(=N)N)C(=O)N[C@@H](CCCCN)C(=O)N[C@@H](CCCCN)C(=O)N[C@@H](CCCNC(=N)N)C(=O)N[C@@H](CCCNC(=N)N)C(=O)N[C@@H](CCC(N)=O)C(=O)N[C@@H](CCCNC(=N)N)C(=O)N[C@@H](CCCNC(=N)N)C(=O)N[C@@H](CCCNC(=N)N)C(N)=O
As for B1, the Kd in assay [2] stood at 30 µM.

Ac-KTGDEKKGGYGRKKRRQRRR-NH2 [CHP-026, linear peptide CH3-CO-KTGDEK-K-GG-…-NH2] showed a Kd in assay [2] of 342 µM. Against the preceding molecule, the Kd is about 11-fold higher.

B2: CHP-028, pre-cyclic peptidomimetic CO-(CH2)2-CO2H KTGDEK-K-GG-…-NH2 (peptide)
peptide: Suc-KTGDEKKGGYGRKKRRQRRR-NH2
SMILES: C[C@@H](O)[C@H](NC(=O)[C@H](CCCCN)NC(=O)CCC(=O)O)C(=O)NCC(=O)N[C@@H](CC(=O)O)C(=O)N[C@@H](CCC(=O)O)C(=O)N[C@@H](CCCCN)C(=O)N[C@@H](CCCCN)C(=O)NCC(=O)NCC(=O)N[C@@H](Cc1ccc(O)cc1)C(=O)NCC(=O)N[C@@H](CCCNC(=N)N)C(=O)N[C@@H](CCCCN)C(=O)N[C@@H](CCCCN)C(=O)N[C@@H](CCCNC(=N)N)C(=O)N[C@@H](CCCNC(=N)N)C(=O)N[C@@H](CCC(N)=O)C(=O)N[C@@H](CCCNC(=N)N)C(=O)N[C@@H](CCCNC(=N)N)C(=O)N[C@@H](CCCNC(=N)N)C(N)=O
The molecule B2 yielded a Kd in assay [2] of 16.4 µM.

For the origin of these results see article PMC10250827.
